Eight substances from WO2023190852A1 can be followed below.

The target in this test is RBD derived from the Omicron strain (BA.3 strain) (SARS-CoV-2).

In the case of ADG2 (antibody), the binding inhibition rate (%) is under 80%.
In the case of AZD1061 (antibody), the binding inhibition rate (%) was under 80%.
AZD8895 (antibody) showed a binding inhibition rate (%) of under 80%.
The value for LY_CoV16 (antibody) was under 80%; that for LY_CoV555 (antibody) was under 80%; that for REGN10933 (antibody) was under 80%.
For REGN10987 (antibody), the binding inhibition rate (%) was under 80%.
Consider S309 (antibody), for which the binding inhibition rate (%) is under 80%.
